Experimental data taken from US20200277374A1 (Alector, published 2020).

Experiments:
[1] = biological target: T1, human Siglec-7 expressed on human cells (primary monocytes, dendritic cells, macrophages, NK cells, … (human, UniProt Q9Y286 19-467)); experiment: FACS, human primary monocytes, 10 ug/ml mAb
T1 construct: Endogenous receptor on cells; also called Siglec-7 receptor

[2] = biological target: T2, Histidine-tagged human Siglec-7 (NovoProtein) (human, UniProt Q9Y286 19-357, limits assumed); experiment: SPR (Biacore T200), antibody captured on anti-mouse IgG, 5 nM Siglec-7-his flowed over, single-concentration 1:1 fit, 25 C
T2 construct: Bought protein; also called purified Siglec-7-his tagged protein; not shown: histidine tag
T2 sequence (Q9Y286 19-357 limits assumed): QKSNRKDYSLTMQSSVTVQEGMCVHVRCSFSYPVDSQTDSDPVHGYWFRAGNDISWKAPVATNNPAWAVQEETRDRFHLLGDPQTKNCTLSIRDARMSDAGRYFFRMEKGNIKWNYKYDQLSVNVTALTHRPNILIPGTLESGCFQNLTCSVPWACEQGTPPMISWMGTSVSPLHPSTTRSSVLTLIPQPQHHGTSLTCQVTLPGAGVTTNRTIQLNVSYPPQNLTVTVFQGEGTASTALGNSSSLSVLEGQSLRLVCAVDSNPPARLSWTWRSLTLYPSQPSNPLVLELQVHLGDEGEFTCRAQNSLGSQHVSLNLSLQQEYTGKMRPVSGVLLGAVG
Experimental: (§1) SPR data was collected at a rate of 10 Hz at 25′ C on a BiaCore T200 instrument. Data analysis was performed using BiaCore T200 Evaluation Software, version 2.0. HBS-EP+ (100 mM HEPES, 1.5 M NaCl, 30 mM EDTA, 0.5% v/v Surfactant P20, pH 7.4) was used as running buffer and for preparing reagents.
(§2) Mouse-derived antibodies (25 nM) against Siglec-7 were captured (60 s contact time, 30 μL/min flow rate, 0 s stabilization time) on a CM5 sensor chip (GE Healthcare) immobilized with anti-mouse IgG. Histidine-tagged human Siglec-7 (NovoProtein) was then flowed over the captured anti-Siglec-7 surface (120 s contact time, 30 μL/min flow rate, 300 s dissociation time). Concentration of antigen ranged from 5 nM to 100 nM, depending on information obtained from an initial screen. Duplicate single-concentration trials were performed and bracketed by a blank (0 nM antigen) sample. The chip surface was regenerated in between cycles using 10 mM glycine-HCl, pH1.7 (60 s contact time, 30 μL/min flow rate, 60 s stabilization time). The resulting SPR signal was obtained as the difference in response from measurements performed on a blank flow cell.
(§3) Affinity constants (KD) were calculated from the ratio kd/kₐ. For one antibody (clone 1E8), we validated the single-concentration analysis with a multiple-concentration approach (five concentrations of antigen used, plus one blank).

[3] = biological target: T1, human Siglec-7 expressed on human cells …; experiment: cell-based or functional assay
[4] = biological target: T1, human Siglec-7 expressed on human cells …; experiment: FACS, human primary dendritic cells, 10 ug/ml mAb
[5] = biological target: T2, Histidine-tagged human Siglec-7 …; experiment: SPR (BiaCore T200, 25 C), antibody captured on anti-mouse IgG, Siglec-7-His 5 nM, single-concentration kinetics
Experimental: as §1, §2, §3

[6] = biological target: T1, human Siglec-7 expressed on human cells …; experiment: FACS, human primary macrophages, 10 ug/ml mAb
[7] = biological target: T1, human Siglec-7 expressed on human cells …; experiment: cell-based or functional assay; remark: listed apart in the source
[8] = biological target: T3, Siglec-7-Fc (plate immobilized) (human, UniProt Q9Y286 19-357, limits assumed); experiment: RBC solid adhesion assay, plate-coated Siglec-7-Fc, antibody 0.5 or 1.0 ug/ml; % of RBC binding without antibody
T3 construct: also called Siglec-7-Fc protein; immobilized Siglec-7; not shown: Fc part
T3 sequence (Q9Y286 19-357 limits assumed): as above
Summary of the method: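 Plates coated overnight at RT with 5 μg/ml Siglec-7-Fc and blocked in PBS with BSA and 1 mM CaCl₂. Antibody (0.5 or 1.0 μg/ml) bound 1 h at RT, then RBCs (3.0×10⁶ cells/ml) added for 1 h at RT. Bound RBCs lysed and detected by peroxidase at 450 nm, expressed as % of binding without antibody.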

[9] = biological target: T2, Histidine-tagged human Siglec-7 …; experiment: SPR (BiaCore T200, 25 C), antibody captured on anti-mouse IgG, Siglec-7-His 50 nM, single-concentration kinetics
Experimental: as §1, §2, §3

N81A = biological target: T4, N81A (human, UniProt Q9Y286); experiment: flow cytometry on HEK-293T cells expressing the mutant; mean % of wild-type signal (range of duplicates)
T4 construct: clone of the siglec-7 mutation library; also called Siglec-7 N81A
T4 sequence (Q9Y286 19-467 N81A limits assumed): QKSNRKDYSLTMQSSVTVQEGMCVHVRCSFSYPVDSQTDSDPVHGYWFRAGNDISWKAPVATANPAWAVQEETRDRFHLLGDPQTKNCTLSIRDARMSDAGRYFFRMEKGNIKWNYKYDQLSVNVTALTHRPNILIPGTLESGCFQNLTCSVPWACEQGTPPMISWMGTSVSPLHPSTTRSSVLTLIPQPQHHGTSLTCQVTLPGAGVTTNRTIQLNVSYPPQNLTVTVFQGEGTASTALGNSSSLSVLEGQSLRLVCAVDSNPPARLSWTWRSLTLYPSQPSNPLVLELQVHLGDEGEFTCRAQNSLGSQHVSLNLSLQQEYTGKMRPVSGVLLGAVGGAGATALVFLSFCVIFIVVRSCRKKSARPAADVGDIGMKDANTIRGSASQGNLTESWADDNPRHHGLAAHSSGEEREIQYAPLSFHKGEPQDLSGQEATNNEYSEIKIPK
Experimental: (§4) Shotgun mutagenesis epitope mapping of anti-siglec-7 antibodies was performed using an alanine-scanning library for the siglec-7 protein. […] Each of residues 19 to 353 was mutated, representing the siglec-7 extracellular domain, most to alanine, while alanine codons were mutated to serine. In total, 335 siglec-7 mutant expression constructs were generated, sequences confirmed, and arrayed into a 384-well plate, one mutant per well.
(§5) Cells were then incubated with MAbs diluted in 10% o normal goat serum (NGS) (Sigma-Aldrich, St. Louis, Mo.). Prior to library screening, primary MAb concentrations were determined using an independent immunofluorescence titration curve against cells expressing wild-type siglec-7 to ensure that signals were within the linear range of detection. MAbs were detected using 3.75 μg/ml AlexaFluor488-conjugated secondary antibody (Jackson immunoResearch Laboratories, Westgrove, Pa.) in 10% NGS. Cells were washed twice with PBS−/− and resuspended in Cellstripper (Cellgro, Manassas, Va.) with 0.1% BSA (Sigma-Aldrich, St. Louis, Mo.). Mean cellular fluorescence was detected using the Intellicyt high throughput flow cytometer (HTFC, Intellicyt, Albuquerque, N. Mex.). MAb reactivities against each mutant clone were calculated relative to wild-type siglec-7 protein reactivity by subtracting the signal from mock-transfected controls, and normalizing to the signal from wild-type siglec-7-transfected controls.

M185A = biological target: T5, M185A (human, UniProt Q9Y286); experiment: as above
T5 construct: clone of the siglec-7 mutation library; also called Siglec-7 M185A
T5 sequence (Q9Y286 19-467 M185A limits assumed): as the sequence (Q9Y286 19-467 N81A limits assumed) above, with A63N, M167A counted along it
Experimental: as §4, §5

M30A = biological target: T6, M30A (human, UniProt Q9Y286); experiment: as above
T6 construct: clone of the siglec-7 mutation library; also called Siglec-7 M30A
T6 sequence (Q9Y286 19-467 M30A limits assumed): as the sequence (Q9Y286 19-467 N81A limits assumed) above, with M12A, A63N counted along it
Experimental: as §4, §5

W74A = biological target: T7, W74A (human, UniProt Q9Y286); experiment: as above
T7 construct: clone of the siglec-7 mutation library; also called Siglec-7 W74A
T7 sequence (Q9Y286 19-467 W74A limits assumed): as the sequence (Q9Y286 19-467 N81A limits assumed) above, with W56A, A63N counted along it
Experimental: as §4, §5

Q31A = biological target: T8, Q31A (human, UniProt Q9Y286); experiment: as above
T8 construct: clone of the siglec-7 mutation library; also called Siglec-7 Q31A
T8 sequence (Q9Y286 19-467 Q31A limits assumed): as the sequence (Q9Y286 19-467 N81A limits assumed) above, with Q13A, A63N counted along it
Experimental: as §4, §5

I72A = biological target: T9, I72A (human, UniProt Q9Y286); experiment: as above
T9 construct: clone of the siglec-7 mutation library; also called Siglec-7 I72A
T9 sequence (Q9Y286 19-467 I72A limits assumed): as the sequence (Q9Y286 19-467 N81A limits assumed) above, with I54A, A63N counted along it
Experimental: as §4, §5

R45A = biological target: T10, R45A (human, UniProt Q9Y286); experiment: as above
T10 construct: clone of the siglec-7 mutation library; also called Siglec-7 R45A
T10 sequence (Q9Y286 19-467 R45A limits assumed): as the sequence (Q9Y286 19-467 N81A limits assumed) above, with R27A, A63N counted along it
Experimental: as §4, §5

T107A = biological target: T11, T107A (human, UniProt Q9Y286); experiment: as above
T11 construct: clone of the siglec-7 mutation library; also called Siglec-7 T107A
T11 sequence (Q9Y286 19-467 T107A limits assumed): as the sequence (Q9Y286 19-467 N81A limits assumed) above, with A63N, T89A counted along it
Experimental: as §4, §5

S47A = biological target: T12, S47A (human, UniProt Q9Y286); experiment: as above
T12 construct: clone of the siglec-7 mutation library; also called Siglec-7 S47A
T12 sequence (Q9Y286 19-467 S47A limits assumed): as the sequence (Q9Y286 19-467 N81A limits assumed) above, with S29A, A63N counted along it
Experimental: as §4, §5

K104A = biological target: T13, K104A (human, UniProt Q9Y286); experiment: as above
T13 construct: clone of the siglec-7 mutation library; also called Siglec-7 K104A
T13 sequence (Q9Y286 19-467 K104A limits assumed): as the sequence (Q9Y286 19-467 N81A limits assumed) above, with A63N, K86A counted along it
Experimental: as §4, §5

R124A [10] = biological target: T14, R124A (human, UniProt Q9Y286); experiment: as above
T14 construct: clone of the siglec-7 mutation library; also called Siglec-7 R124A
T14 sequence (Q9Y286 19-467 R124A limits assumed): as the sequence (Q9Y286 19-467 N81A limits assumed) above, with A63N, R106A counted along it
Experimental: as §4, §5

V44A = biological target: T15, V44A (human, UniProt Q9Y286); experiment: as above
T15 construct: clone of the siglec-7 mutation library; also called Siglec-7 V44A
T15 sequence (Q9Y286 19-467 V44A limits assumed): as the sequence (Q9Y286 19-467 N81A limits assumed) above, with V26A, A63N counted along it
Experimental: as §4, §5

F48A = biological target: T16, F48A (human, UniProt Q9Y286); experiment: as above
T16 construct: clone of the siglec-7 mutation library; also called Siglec-7 F48A
T16 sequence (Q9Y286 19-467 F48A limits assumed): as the sequence (Q9Y286 19-467 N81A limits assumed) above, with F30A, A63N counted along it
Experimental: as §4, §5

Y50A = biological target: T17, Y50A (human, UniProt Q9Y286); experiment: as above
T17 construct: clone of the siglec-7 mutation library; also called Siglec-7 Y50A
T17 sequence (Q9Y286 19-467 Y50A limits assumed): as the sequence (Q9Y286 19-467 N81A limits assumed) above, with Y32A, A63N counted along it
Experimental: as §4, §5

R124A [11] = biological target: T14, R124A; experiment: flow cytometry on HEK-293T cells expressing the mutant, mock signal subtracted
Experimental: as §4
as §5, with “Cells were washed twice with PBS−/− and resuspended in Cellstripper (Cellgro, Manassas, Va.) with 0.1% BSA (Sigma-Aldrich, St. Louis, Mo.).” left out

T1 sequence (Q9Y286 19-467): as the sequence (Q9Y286 19-467 N81A limits assumed) above, with A63N counted along it

B1: anti-Siglec-7 antibody 1E8 (antibody, V domains shown)
VH: QVQLQQSGAELVRPGASVKLSCSASGFNIKGSLLHWIKQRPLQGLEWIGWIDPEDGETRFDPKFQDKAFLTADTSSTTAYLQLSSLTSEDTAIYYCARTEYSNPAWFAYWGQGTLVTVSA
VL: DIQMTQFPATLSVTPGDRVSLSCRASQSISDYLHWYQHKSHESPRLLIKYASQSISGIPSRFSGSGSGWDFTLSINSVEPEDVGIYYCQKGLNFPLTFGGGTKLEMK
Question: Which results are given for B1?
Answer: % Positive [1]: 99.3%; MFI [1]: 428; Kd [2]: 0.017 nM; Percent Siglec-7 Surface Expression, Macrophages [3]: 9.1%; Percent Siglec-7 Surface Expression, Microglia [3]: 41.3%; Percent Siglec-7 Surface Expression, NK cells [3]: 144%; % Positive [4]: 99.7%; MFI [4]: 2940; Kd [5]: 0.017 nM; % Positive [6]: 99.5%; MFI [6]: 5450; Percent Siglec-7 Surface Expression, DCs [7]: 23%; Percent Siglec-7 Surface Expression, Monocytes [7]: 36.7%; Percent Siglec-7 Surface Expression, U937 cells [7]: 114%; Percent RBC Binding to Siglec-7 [8]: 16.4%

B2: anti-Siglec-7 antibody 2G4 (antibody, V domains shown)
VH: QVQLQQSGSELRSPGSSVKLSCKDFDSEVFPITYMNWVRQKPGHGFEWIGDILPSIGRTMYGEKFEDKATLDADTVSNTAYLELNSLTSEDSAIYYCARSEGYLLAYWGQGTLVTVSA
VL: DIQMTQSLSYLSVSLGGRVTITCKASDHINNWLAWYQQKPGNAPRLLISGATSLETGFPSRFSGSGSGKDYTLSITSLQTEDVATYYCHQYWNTPYTFGGGTRLEIK
notes: Variable domains assembled from FR and CDR entries
Question: Which “% Positive” value [1] does the source give for B2 here?
Answer: 99.3%

Question: What about the MFI [1] of the same binder?
Answer: 512

Question: What about the “Percent Siglec-7 Surface Expression, Macrophages” value [3] of the same binder?
Answer: 14.1%

Question: And the “Percent Siglec-7 Surface Expression, Microglia” value [3]?
Answer: 23%

Question: And the “Percent Siglec-7 Surface Expression, NK cells” value [3]?
Answer: 126%

Question: What about the “% Positive” value [4] of the same binder?
Answer: 99.7%

Question: And the MFI [4]?
Answer: 5750

Question: And the Kd [9]?
Answer: 0.4 nM

Question: What about the “% Positive” value [6] of the same binder?
Answer: 99.5%

Question: What about the MFI [6] of the same binder?
Answer: 15500

Question: And the “Percent Siglec-7 Surface Expression, DCs” value [7]?
Answer: 98.1%

Question: And the “Percent Siglec-7 Surface Expression, Monocytes” value [7]?
Answer: 29.3%

Question: What about the “Percent Siglec-7 Surface Expression, U937 cells” value [7] of the same binder?
Answer: 84.6%

Question: And the “Percent RBC Binding to Siglec-7” value [8]?
Answer: 11.6%

B3: 4E3 Fab (Fab, V domains shown)
VH: EVQLVESGGALVKPGGSLKISCAVSGFIFSNYDMSWVRQNPEKRLEWVATISSGGGYTYYPDSVKGRFTISRDNAKNALYLQMSSLRSEDTALYYCTRHGYGNYDWYFDVWGAGATVTVSS
VL: QIVLTQSPAILSASPGEKVTMTCSANSSFTYMYWYQQKPGSSPRLLIFDTSNLASGVPIRFSGSGSGTSYSLTISRMEAEDTATYYCQQWSSSPLTFGAGTKLELK
Question: B3 was tested. Which “Binding Reactivity (% WT)” value (N81A) did it give?
Answer: 22 % WT

Question: And the “Binding Reactivity (% WT)” value (M185A)?
Answer: 91.6 % WT

Question: What about the “Binding Reactivity (% WT)” value (M30A) of the same binder?
Answer: 123 % WT

Question: And the “Binding Reactivity (% WT)” value (W74A)?
Answer: 25.7 % WT

Question: What about the “Binding Reactivity (% WT)” value (Q31A) of the same binder?
Answer: 112 % WT

Question: What about the “Binding Reactivity (% WT)” value (I72A) of the same binder?
Answer: 26.5 % WT

Question: And the “Binding Reactivity (% WT)” value (R45A)?
Answer: 129 % WT

Question: What about the “Binding Reactivity (% WT)” value (T107A) of the same binder?
Answer: 124 % WT

Question: And the “Binding Reactivity (% WT)” value (S47A)?
Answer: 103 % WT

Question: What about the “Binding Reactivity (% WT)” value (K104A) of the same binder?
Answer: 115 % WT

Question: What about the “Binding Reactivity (% WT)” value (R124A [10]) of the same binder?
Answer: 1 % WT

Question: What about the “Binding Reactivity (% WT)” value (V44A) of the same binder?
Answer: 115 % WT

Question: What about the “Binding Reactivity (% WT)” value (F48A) of the same binder?
Answer: 146 % WT

Question: And the “Binding Reactivity (% WT)” value (Y50A)?
Answer: 139 % WT

Question: Does B3 bind (R124A [11])?
Answer: no binding
